Measured values: PMC8939767 (Science Translational Medicine, 2022)
Where no end group is shown, it is not given here. The star is where a group is joined. Biotin = O=C1N[C@H]2[C@H](CS[C@H]2CCCCC(=O)*)N1

Tests used:
[1] = biological target: T1, HCoV-HKU1 S2 95th 15-mer stem peptide (residues 1231-1245), biotinylated (HCoV-HKU1 isolate N1 (AAT98580.1), UniProt Q5MQD0); experiment: ELISA; […], mAb in 1% BSA/PBST, […]; details: both partners purified
T1 construct: also called 95th 15-mer peptide; HCoV-HKU1 95th 15-mer stem peptide; source: synthetic peptide (A&A Labs, Synthetic Biomolecules)
T1 chain: Biotin-LSDFESELSHWFKNQ

[2] = biological target: T2, HCoV-HKU1 soluble spike ectodomain protein (HCoV-HKU1, isolate N1 by the GenBank …, UniProt Q5MQD0); experiment: BLI; details: both partners purified
T2 construct: also called HCoV-HKU1 soluble spike protein; source: FreeStyle293-F, transfected, purified (Ni-NTA, SEC)

[3] = biological target: T3, HCoV-HKU1 stem peptide variant, 20-mer with 5 additional residues at the C-terminus (HCoV-HKU1 isolate N1 (AAT98580.1), UniProt Q5MQD0, biotin on the N-terminus); experiment: BLI; details: both partners purified
T3 construct: also called 20-mer (orange); source: synthetic peptide
T3 chain: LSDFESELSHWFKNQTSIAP

[4] = biological target: T4, HCoV-HKU1 25-residue S2 stem peptide (residues 1226-1250) (HCoV-HKU1 isolate N1 (AAT98580.1), UniProt Q5MQD0, biotin on the N-terminus); experiment: BLI; details: both partners purified
T4 construct: also called 25-mer (red); 25-mer S2 peptide from HCoV-HKU1; source: synthetic peptide
T4 chain: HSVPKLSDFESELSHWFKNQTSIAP

[5] = biological target: T5, HCoV-HKU1 stem peptide variant, 20-mer with 5 additional residues at the N-terminus (HCoV-HKU1 isolate N1 (AAT98580.1), UniProt Q5MQD0, biotin on the N-terminus); experiment: BLI; details: both partners purified
T5 construct: also called 20-mer (brick red); source: synthetic peptide
T5 chain: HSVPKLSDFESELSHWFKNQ

[6] = biological target: T6, SARS-CoV-2 S2 stem-helix 25-mer peptide, N-terminal biotinylated (wild type) (SARS-CoV-2, UniProt P0DTC2, biotin on the N-terminus); experiment: BLI; […], Octet buffer (PBS plus 0.1% Tween-20), association 120 s, […]; details: both partners purified
T6 construct: also called SARS-CoV-2 stem-helix peptide; SARS-CoV-2 stem peptide (25mer); source: synthetic peptide
T6 chain: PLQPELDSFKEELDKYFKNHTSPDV

[7] = biological target: T7, HCoV-HKU1 spike protein, full length, expressed on 293T cells (HCoV-HKU1, isolate N1 by the GenBank …, UniProt Q5MQD0); experiment: flow cytometry on cells; details: one partner purified
T7 construct: source: HEK293T, transfected, on the cell surface

[8] = biological target: T8, SARS-CoV-2 25-mer S2 stem peptide (as used for the crystal and for competition of neutralization) (SARS-CoV-2, UniProt P0DTC2); experiment: crystal structure; details: both partners purified
T8 construct: also called SARS-CoV-2 S2 peptide; SARS-CoV-2 stem peptide; source: synthetic peptide
T8 chain: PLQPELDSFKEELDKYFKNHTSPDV

Measured: binding result

T7 sequence (Q5MQD0 13-1356): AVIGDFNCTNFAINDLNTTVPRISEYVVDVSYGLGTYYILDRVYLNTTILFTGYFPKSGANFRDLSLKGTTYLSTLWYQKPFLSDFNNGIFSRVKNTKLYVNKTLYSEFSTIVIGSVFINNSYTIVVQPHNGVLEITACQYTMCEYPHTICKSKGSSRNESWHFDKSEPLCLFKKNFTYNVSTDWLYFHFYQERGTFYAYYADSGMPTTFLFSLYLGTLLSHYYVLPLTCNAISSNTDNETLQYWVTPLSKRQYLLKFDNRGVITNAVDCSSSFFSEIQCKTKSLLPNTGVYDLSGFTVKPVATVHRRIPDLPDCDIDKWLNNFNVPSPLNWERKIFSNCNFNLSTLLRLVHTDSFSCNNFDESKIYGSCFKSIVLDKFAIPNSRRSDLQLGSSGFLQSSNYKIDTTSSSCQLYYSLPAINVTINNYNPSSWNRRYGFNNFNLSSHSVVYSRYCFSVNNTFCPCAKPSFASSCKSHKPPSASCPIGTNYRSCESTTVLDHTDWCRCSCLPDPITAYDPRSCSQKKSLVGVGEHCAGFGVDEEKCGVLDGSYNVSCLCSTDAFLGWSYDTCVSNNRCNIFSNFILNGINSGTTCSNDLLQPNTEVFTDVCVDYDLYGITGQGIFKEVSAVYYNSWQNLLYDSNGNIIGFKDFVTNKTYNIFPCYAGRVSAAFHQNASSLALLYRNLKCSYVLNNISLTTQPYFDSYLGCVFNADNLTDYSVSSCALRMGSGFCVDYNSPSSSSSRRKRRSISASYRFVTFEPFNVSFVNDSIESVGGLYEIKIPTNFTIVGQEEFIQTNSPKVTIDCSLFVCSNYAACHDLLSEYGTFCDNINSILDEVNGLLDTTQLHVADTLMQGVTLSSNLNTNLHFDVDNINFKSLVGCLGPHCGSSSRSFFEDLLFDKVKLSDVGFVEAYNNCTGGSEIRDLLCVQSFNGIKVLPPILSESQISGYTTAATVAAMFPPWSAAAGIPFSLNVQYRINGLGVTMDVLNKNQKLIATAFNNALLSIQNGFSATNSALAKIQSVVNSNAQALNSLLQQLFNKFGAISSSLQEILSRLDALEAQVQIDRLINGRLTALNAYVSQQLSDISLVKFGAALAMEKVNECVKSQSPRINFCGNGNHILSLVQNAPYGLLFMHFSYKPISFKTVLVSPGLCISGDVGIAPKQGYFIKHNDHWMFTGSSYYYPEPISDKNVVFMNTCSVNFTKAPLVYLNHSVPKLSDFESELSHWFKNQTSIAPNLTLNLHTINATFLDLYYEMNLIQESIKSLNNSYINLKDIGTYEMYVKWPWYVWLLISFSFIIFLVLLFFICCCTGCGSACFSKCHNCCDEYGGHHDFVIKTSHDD

B1: CC40.8 broadly neutralizing antibody (IgG) (antibody, V domains shown)
VH: EVQLLESGGGLVQPGGSLRLSCAASGFTFSSYVMTWARQAPGKGLEWVSAISGTGYTYYADSVKGRFTVSRDNSKNTLFLQMSSLRAEDTAVYYCAITMAPVVWGQGTTVTVSS
VL: SYELTQPPSVSVSPGQTARITCSGDALPKRYAYWYQQKSGQAPILVIYEDKKRPSGIPERLSGSKSGTVATLTISGAQVEDEADYYCYSTDSSGNHAVFGGGTQLTVL
notes: also called CC40.8 bnAb; CC40.8 mAb
not listed: [8]
binds: all other assays above

B2: CC40.8 Fab (Fab, V domains shown)
VH: EVQLLESGGGLVQPGGSLRLSCAASGFTFSSYVMTWARQAPGKGLEWVSAISGTGYTYYADSVKGRFTVSRDNSKNTLFLQMSSLRAEDTAVYYCAITMAPVVWGQGTTVTVSS
VL: SYELTQPPSVSVSPGQTARITCSGDALPKRYAYWYQQKSGQAPILVIYEDKKRPSGIPERLSGSKSGTVATLTISGAQVEDEADYYCYSTDSSGNHAVFGGGTQLTVL
notes: also called CC40.8 antibody Fab fragment
binds: [8]
